Biological target: HLA-B*08:01 (Homo sapiens, UniProt P01889)
Assay: MHC binding assay (UV-ligand exchange, beta2m ELISA)
Details: MHC class I binding score; binding to HLA-B*08:01 ranged by peptide exchange yield (UV-ligand exchange, β2m ELISA)
Excerpt: Candidate peptides for T cell based therapies according to the present invention were further tested for their MHC binding capacity (affinity). The individual peptide-MHC complexes were produced by UV-ligand exchange, where a UV-sensitive peptide is cleaved upon UV-irradiation and exchanged with the peptide of interest as analyzed. Only peptide candidates that can effectively bind and stabilize the peptide-receptive MHC molecules prevent dissociation of the MHC complexes. To determine the yield of the exchange reaction, an ELISA was performed based on the detection of the light chain (β2m) of stabilized MHC complexes. The assay was performed as generally described in Rodenko et al. (Rodenko et al., 2006).
96 well MAXISorp plates (NUNC) were coated over night with 2 ug/ml streptavidin in PBS at room temperature, washed 4× and blocked for 1 h at 37° C. in 2% BSA containing blocking buffer. Refolded HLA-A*02:01/MLA-001 monomers served as standards, covering the range of 15-500 ng/ml. Peptide-MHC monomers of the UV-exchange reaction were diluted 100-fold in blocking buffer. Samples were incubated for 1 h at 37° C., washed four times, incubated with 2 ug/ml HRP conjugated anti-β2m for 1 h at 37° C., washed again and detected with TMB solution that is stopped with […]. Absorption was measured at 450 nm. Candidate peptides that show a high exchange yield (preferably higher than 50%, most preferred higher than 75%) are generally preferred for a generation and production of antibodies or fragments thereof, and/or T cell receptors or fragments thereof, as they show sufficient avidity to the MHC molecules and prevent dissociation of the MHC complexes.

Substance	Peptide exchange
85 (QKPRKKKL; listed as Homo sapiens) [compound 85]	++ (20% = ++)
238 (IPLAIARL; listed as Homo sapiens) [compound 238]	+++ (50% = +++)
92 (TLKAMVQAW; listed as Homo sapiens) [compound 92]	+++ (50% = +++)
203 (DVYTQVSAF; listed as Homo sapiens) [compound 203]	++ (20% = ++)
152 (FNKLVTEL; listed as Homo sapiens) [compound 152]	++ (20% = ++)
180 (LAVPIFVAL; listed as Homo sapiens) [compound 180]	++ (20% = ++)
154 (VLKTLQEL; listed as Homo sapiens) [compound 154]	++ (20% = ++)
17 (LLILKTVL; listed as Homo sapiens) [compound 17]	+++ (50% = +++)
248 (SEVNKHETAL; listed as Homo sapiens) [compound 248]	++ (20% = ++)
144 (IEQIRAVL; listed as Homo sapiens) [compound 144]	++ (20% = ++)
110 (DAMTKHTL; listed as Homo sapiens) [compound 110]	+++ (50% = +++)
204 (MSPLLRSI; listed as Homo sapiens) [compound 204]	++ (20% = ++)
176 (YVIQRQSVL; listed as Homo sapiens) [compound 176]	++ (20% = ++)
101 (FAFEKLIQF; listed as Homo sapiens) [compound 101]	+++ (50% = +++)
4 (QVMPKTGL; listed as Homo sapiens) [compound 4]	++ (20% = ++)
241 (NAYEAPSI; listed as Homo sapiens) [compound 241]	++ (20% = ++)
187 (VPYNSVLF; listed as Homo sapiens) [compound 187]	++ (20% = ++)
59 (FDFRGKTKVF; listed as Homo sapiens) [compound 59]	++ (20% = ++)
140 (IAVDKPITL; listed as Homo sapiens) [compound 140]	++ (20% = ++)
128 (HFHNRHVF; listed as Homo sapiens) [compound 128]	+++ (50% = +++)
242 (KPQSLQLVL; listed as Homo sapiens) [compound 242]	++ (20% = ++)
179 (LPLTEHEL; listed as Homo sapiens) [compound 179]	+++ (50% = +++)

Substance	Peptide exchange
182 (ILHLSAIAL; listed as Homo sapiens) [compound 182]	++++ (75% = ++++)
250 (AARAPPQAL; listed as Homo sapiens) [compound 250]	++ (20% = ++)
32 (NPYLKLVL; listed as Homo sapiens) [compound 32]	++ (20% = ++)
202 (RIPEKASFL; listed as Homo sapiens) [compound 202]	++ (20% = ++)
160 (LPINNTHI; listed as Homo sapiens) [compound 160]	++ (20% = ++)
191 (RPLKPGEVL; listed as Homo sapiens) [compound 191]	++ (20% = ++)
50 (TLRLLVAAL; listed as Homo sapiens) [compound 50]	+++ (50% = +++)
24 (DLVLKRCL; listed as Homo sapiens) [compound 24]	++++ (75% = ++++)
247 (TPEPSVHAL; listed as Homo sapiens) [compound 247]	++ (20% = ++)
234 (VFRVGISF; listed as Homo sapiens) [compound 234]	++ (20% = ++)
142 (YNLIYSMCL; listed as Homo sapiens) [compound 142]	+++ (50% = +++)
56 (ILCGSRKMPL; listed as Homo sapiens) [compound 56]	++ (20% = ++)
172 (PYEKVSRL; listed as Homo sapiens) [compound 172]	++ (20% = ++)
112 (NALDPLSAL; listed as Homo sapiens) [compound 112]	++ (20% = ++)
70 (RPKGTPPL; listed as Homo sapiens) [compound 70]	++ (20% = ++)
183 (YVSKPGAQL; listed as Homo sapiens) [compound 183]	++ (20% = ++)
173 (YPLLKDPSL; listed as Homo sapiens) [compound 173]	+++ (50% = +++)
200 (VAAARAVPV; listed as Homo sapiens) [compound 200]	++ (20% = ++)
102 (IMKKIRESY; listed as Homo sapiens) [compound 102]	+++ (50% = +++)
104 (FAFGEPREL; listed as Homo sapiens) [compound 104]	++ (20% = ++)
28 (DPKSRLKSL; listed as Homo sapiens) [compound 28]	++ (20% = ++)
165 (QNSLRHNL; listed as Homo sapiens) [compound 165]	++ (20% = ++)

Results, then the substance that gave them:

Peptide exchange	Substance
++ (20% = ++)	158 (DVIIKGNGL; listed as Homo sapiens) [compound 158]
++ (20% = ++)	100 (VLLMGPLHL; listed as Homo sapiens) [compound 100]
+++ (50% = +++)	235 (SPNSLVTIL; listed as Homo sapiens) [compound 235]
++ (20% = ++)	61 (SIKKELVVL; listed as Homo sapiens) [compound 61]
+++ (50% = +++)	228 (TLRAYVLAL; listed as Homo sapiens) [compound 228]
++ (20% = ++)	230 (DVYFHHVL; listed as Homo sapiens) [compound 230]
++ (20% = ++)	211 (DVISKGVSL; listed as Homo sapiens) [compound 211]
++ (20% = ++)	67 (DMNTKRAIHTL; listed as Homo sapiens) [compound 67]
+++ (50% = +++)	87 (QILQHHVL; listed as Homo sapiens) [compound 87]
++ (20% = ++)	220 (LAVRHLSL; listed as Homo sapiens) [compound 220]
+++ (50% = +++)	118 (MAFVKHLL; listed as Homo sapiens) [compound 118]
+++ (50% = +++)	218 (DNHPRLVTL; listed as Homo sapiens) [compound 218]
++ (20% = ++)	169 (YELNNLHAL; listed as Homo sapiens) [compound 169]
+++ (50% = +++)	146 (FQTAHFYL; listed as Homo sapiens) [compound 146]
+++ (50% = +++)	93 (LMKEKIQEM; listed as Homo sapiens) [compound 93]
++ (20% = ++)	23 (DIKKTNESL; listed as Homo sapiens) [compound 23]

Peptide exchange	Substance
+++ (50% = +++)	198 (FPLTSIIAI; listed as Homo sapiens) [compound 198]
+++ (50% = +++)	225 (MPKRAHWGA; listed as Homo sapiens) [compound 225]
++ (20% = ++)	121 (YSQLSISL; listed as Homo sapiens) [compound 121]
++ (20% = ++)	133 (QATPRVRIL; listed as Homo sapiens) [compound 133]
+++ (50% = +++)	127 (EPVIRTVSI; listed as Homo sapiens) [compound 127]
++ (20% = ++)	216 (EARPPSPAV; listed as Homo sapiens) [compound 216]
++ (20% = ++)	113 (MEKGLASL; listed as Homo sapiens) [compound 113]
+ (0% = +)	175 (MRFQQFLFA; listed as Homo sapiens) [compound 175]
++ (20% = ++)	181 (SIRSSYSRF; listed as Homo sapiens) [compound 181]
++ (20% = ++)	123 (SLLPFTLSF; listed as Homo sapiens) [compound 123]
+++ (50% = +++)	72 (LPLAHHIQL; listed as Homo sapiens) [compound 72]
++ (20% = ++)	147 (HAMDGASHL; listed as Homo sapiens) [compound 147]
++ (20% = ++)	224 (LPYPPQKVV; listed as Homo sapiens) [compound 224]
+++ (50% = +++)	2 (QIMPKAGL; listed as Homo sapiens) [compound 2]
++ (20% = ++)	69 (ELARQRLL; listed as Homo sapiens) [compound 69]
